Reference: article PMC3998727 (Nature medicine, 2012)

B1: BMP7: Bone morphogenetic protein–7, member of the TGF-β superfamily, natural ligand of Alk3 (protein, UniProt P18075 293-431, looked up)
Bone morphogenetic protein 7: STGSKQRSQNRSKTPKNQEALRMANVAENSSSDQRQACKKHELYVSFRDLGWQDWIIAPEGYAAYYCEGECAFPLNSYMNATNHAIVQTLVHFINPETVPKPCCAPTQLNAISVLYFDDSSNVILKKYRNMVVRACGCH

Assays:
DN kidney [1] = assay: Advanced diabetic nephropathy, captopril and THR–123 combination; type: in vivo, mice; settings: eight months DN
[2] = system: tubular epithelial cells (TECs; NP–1 cells); assay: Hypoxia induced apoptosis of TECs; type: cell-based; settings: Annexin V; NP–1 cells in hypoxia
TECs (NP–1 cells) = assay: Reversal of TGF-β and EGF induced EMT in TECs; type: cell-based; settings: TECs after 48 hours of incubation with TGF-β and EGF
DN kidney [3] = assay: Streptozotocin–induced diabetic nephropathy; type: in vivo, CD–1 mice

Row | Molecule | EMT program (DN kidney [1]) | macrophage infiltration (DN kidney [1]; Mac–1) | hypoxia induced apoptosis of TECs [2] | reversal of TGF-β–induced EMT (TECs (NP–1 cells)) | mesangium expansion (DN kidney [3]; STZ–induced six month DN, BMP7 1–6 months, THR–123 5–6 months treatment) | induction of an EMT program (DN kidney [3]; six months DN) | renal dysfunction (blood urea nitrogen) (DN kidney [3]; six months DN) | macrophage infiltration (DN kidney [3]; six months DN, Mac–1, F4/80)
1 | C[C@H](CS)C(=O)N1CCC[C@H]1C(=O)O [CPR, captopril] | inhibited | inhibited macrophage infiltration |  |  |  |  |  | 
2 | B1 |  |  | inhibited | reversed | inhibited mesangium expansion | inhibited induction of an EMT program | significantly reversed renal dysfunction | reduced macrophage infiltration
